Here are results for one substance from article PMC6933771.

For the test, the target named is human prothrombin (human).

staphylocoagulase (natural protein) returned an amidolytic activity of the SCG-PT complex on the chromogenic thrombin substrate S-2238, specific activity relative to human thrombin (9.1 IU/nmol) of 5.5 IU/nmol; a clotting activity of the SCG-PT complex in human plasma, specific activity relative to human thrombin of 4.2 IU/nmol; a clotting activity of the SCG-PT complex on purified human fibrinogen (3.0 g/L), specific activity relative to human thrombin of 3.6 IU/nmol.
